# Literature values, collected in patent publication US20050220810A1, “Anti-aging preparation” (Shiseido Company, Ltd., priority 2002, published 2005).
# System: vascular endothelial cell HMVEC
# Details: general statement on positive controls of TSP-1 induction; no test described
molecule,measurement,value
"TPA: tissue plasminogen activator, a positive control of the TSP-1 inducing substance (protein, UniProt P00750 36-562, looked up) Tissue-type plasminogen …: SYQVICRDEKTQMIYQQHQSWLRPVLRSNRVEYCWCNSGRAQCHSVPVKSCSEPRCFNGGTCQQALYFSDFVCQCPEGFAGKCCEIDTRATCYEDQGISYRGTWSTAESGAECTNWNSSALAQKPYSGRRPDAIRLGLGNHNYCRNPDRDSKPWCYVFKAGKYSSEFCSTPACSEGNSDCYFGNGSAYRGTHSLTESGASCLPWNSMILIGKVYTAQNPSAQALGLGKHNYCRNPDGDAKPWCHVLKNRRLTWEYCDVPSCSTCGLRQYSQPQFRIKGGLFADIASHPWQAAIFAKHRRSPGERFLCGGILISSCWILSAAHCFQERFPPHHLTVILGRTYRVVPGEEEQKFEVEKYIVHKEFDDDTYDNDIALLQLKSDSSRCAQESSVVRTVCLPPADLQLPDWTECELSGYGKHEALSPFYSERLKEAHVRLYPSSRCTSQHLLNRTVTDNMLCAGDTRSGGPQANLHDACQGDSGGPLVCLNDGRMTLVGIISWGLGCGQKDVPGVYTKVTNYLDWIRDNMRP",induction of cell death in vascular endothelial cells,does not induce cell death
